From the nanobody polyreactivity screen of Harvey et al. (2022)

Assay: yeast display, Sf9 membrane polyspecificity reagent, FACS + sequencing; frameworks hold sequencing errors
Method in brief: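 Using colony PCR, genes from sorted yeast display clones were amplified, then sequenced on MiSeq at 2 × 250 and filtered by CDR length. The clones had been stained with 10% biotinylated, detergent-solubilized Sf9 membrane reagent for 1 hour at 4 °C and sorted by FACS into low and high (top ~1%) gates on anti-HA and streptavidin fluorescence. Polyreactivity labels come from the gate of origin.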

Sequence	polyreactivity (PSR sort gate)
QVQLVESGGGLVQAGGSLRLSCAASGSTFYVNAMGWYRQAPGKERELVAAISRRGGSTYYADSVKGRFTISRDNAKNTVYLQMNSLKPEDTAVYYCNVVPVWRPYSLINWQKHFGYWGQGTQVTVSS	high polyreactivity
QVQLVESGGGLVQAGGSLRLSCAASGRIFAYYAMGWYRQAPGKERELVAAITSSGGSTYYADSVKGRFTISRDNAKNTVYLQMNSLKPEDTAVYFCAKVGARSERFDYRGQGTQVTVSS	high polyreactivity
QVQLVESGGGLVQAGGSLRLSCASYGYIFWSYAMGWYRQAPGKERELVAAISASGGRTYYADSVKGRFTISRDNAKNTVYLQMNSLKPEDTAVYYCNADPGNHAYWYYGEFYYYTYDYWGQGTQVTVSS	low polyreactivity
QVQLVESGGGLVQAGGSLRLSCAASRLTFNTYTIGWYRQAPGKERELVAGRSKSGGRTYYADSVKGRFTISRDNAKITVYLQMNILKAEDTSVYYCSTRSTTDFYWGHGTQVTVSS	high polyreactivity
QVQLVESGGGLVQAGGSLRLSCAASGRIFRGNVMGWYRQAPGTERELVAAISGSGGSTYYADSVKGRFTISRDNAKNTVYLQMNSLKPEDTAVYYCAAGTAKTPRRSVGYWGQGTQVTVSS	high polyreactivity
QVQLVESGGGLVQAGGSLRLSCAASGRIFRRNAMGWYRQAPGKERELVAAISSSGGRTYYADSVKGRFTISRDNAKNTVYLQMNSLKPEDTAVYYCATRESLEPGYYWGQGTQVTVSS	high polyreactivity
QVQLVESGGGLVQAGGSLRLSCAASGLTFYYYTMGWYRQAPGKERELVATISRSGTSTNYADSVKGRFTISRDNAKNTVYLQMNSLKPEDTAVYYCAAVLRWRDLFSEYYYWGQGTQVTVSS	high polyreactivity
QVQLVESGGGLVQAGGSLRLSWAASGRTIVYYAMGWYSQAPGKEREFVAAISRSGGRTSYADSVKGRFTISRDNAKNTVYLHMNILKPDDTAVYYCAAEKRTQPTSREYYWGKGTQVTVSS	high polyreactivity
QVQLVESGGGLVQAGGSLRLSCAASPNIFHTYGMGWYRQAPWKERELVAAITSDGGTYYADSVKGRFTISRDNAKNTVYLQMNSLNPEDSAVYYCAAYTYYYAIHAYWGQGSQVTVSS	low polyreactivity
QVQLVESGGGLVQAGGSLRLSCAASGRIFDLNAMGWYRQAPGKERELVAVISWSGGIKYYADSVKGRFTISRDNAKNTVYLQMNSLKPEDTAVYYCNADTVFDPYYEFDYWGLGTQVTVSS	low polyreactivity
QVQLVESGGGLVQAGGSLRLSCAASGSTFYPYAKGWYRQAPRKERELVATITNSGGSTYYADSVKGRFTISRDNAKNTVYLQMNSLKPEDTAVYYCARVRSRNTGYYYWGQGTQVTVSS	high polyreactivity
QVQLVESGGGLVQAGGSLRLSCAASGFTFRYYAMGWYRQAPGKERELVAAITGSGGRTYYADSVKGRFTISRDNAKNTVYLQMNSLKPEDTAVYYCARDVDPRGRYYWGQGTQVTVSS	high polyreactivity
QDQLVESGGGLVHAGGSLLLSCAACRRLFSQYVMGWYRQAPGKERELVAAISSGGGRTYYADSVKGRFTISRDYAKNTVYLQLNSLKPEDTAVYYCATLRPSAYPQYDSWGQGTQVTVSS	high polyreactivity
QDQLVESGGGLVQAGGSLRLSCASSGFTIVYYAMGWYRQAPGKERELVADISSYGSTYADSVKGRFTISRDNAKNTVYLLMNSLKPEDTAVYYCAAEYIYQPHYGYYYWGQGTQVTVSS	high polyreactivity
QVQLVESGGGLVQAGGSLRLSCAASGGIFDVYAMGWYRQAPGKERELVAAITASGGSTYYADSVKGRFTISRDNAKNTVYLQMNSLKPEDTAVYYCNAYYYYLFHRYDYWGQGTQVTVSS	low polyreactivity
QVQLVESGGGLVQAGGSLRLSCAASGSTFDRYAMGWYRQAPGKERELVAAITGSGGRTYYADSVKGRFTISRDNAKNTVYLQMNSLKPEDTAVYYCAARRSGYYLYSVDYWGQGTQVTVST	high polyreactivity

Sequence	polyreactivity (PSR sort gate)
QVHLVESGGGLVQAGGSLRLSCAASGFTLANYAMGWYRQPPGKERELVAAIDYSGGGTYYADSVKGRFTISRDNAKNTVYLQMNSLKPEDTAVYYCAARRWSYYSAKYDYWGQGTQVTVSS	low polyreactivity
QVQLVESGGGLVQAGGSLRLSCAASGRTFKYYAMGWYRQAPGIEREFVAAITVSGGSTYYADSVKGRFTISRDNAKNPVYLQMNSLKPEDTAVYYCAARYQRYSSKTIQNEDYWGQGTQVTVSS	high polyreactivity
QVQLVESGGGLVQAGGSLRLSCAASGSIFYANAMGWYRQAPAKERELVAAIRSGGSTNYADSVKGRFTISRDNAKKTVYLQMNSLKPEDTAVYYCAAVWRYWSGQKVGYWGQGTQVTVSS	high polyreactivity
QVQLVESGAGLVQAGGSLRLSCAASGNTFGTYAMGGSRQAPGKERELVASISKRAGSTYYADSVKGRFTISRDNAKNTVYLQMNSLKPEDTAVYYCAASSWDTFDYWGQGTQVTVSS	high polyreactivity
QVQLVESGGGLVQAGGSLRLSCAASGFTFAYYAMGWYRQAPGKERELVAAISYSGGSTYYADSVKGRFTISRDNAKNTVYLQMNSLKPVDTAVYYCAAEAGRRYNWGYDYWGQGTQVTVSS	high polyreactivity
QVQLVESGGGLVQAGGSLRLSCAASGSTFPINAMGWYRQAPGKERELVACISSGGSTDYADSVKGRFTISRVNAKNTVYLQMNSLKAEHTAVYYWAAVRGPSLVTKYPHDYWGQGTQVTVSS	low polyreactivity
QVQLVESGGGLVQAGGSLRISCAASGNAMGWYRQAPGKERELVAVITGGGSTYYADSVKGRFTISRDNAKNTVYLQMNSLKPEDTAVYYCAAKGPYYKSSRTGDYWGQGTQVTVSS	low polyreactivity
QVQLVESGGGLVQAGGSLLLSCAASGFIFPPYDMGWYRQAPGKEMELVAGISDVGTTYYADSVKGRFTISRDNAKNTVYLQMNSLKPEDTAVYYCAAESQGDDQFWTGGYDSWGQGTQVTVSS	low polyreactivity
QVELVESGGGLVQAGGSLRLSCAASGSTFYRYAMGWYRQAPGKEREFVARIDWSDGSTNYADSVKGRFTISRDTAKNTVYLQMNSLKPEDTAVYYCAADTYYDTYDGEYEYWGQGTQVTVSS	low polyreactivity
QVQLVESGGGLVQAGGSLRLSCAASGRISYRNAMGWYRQAPGKERELVATITNGGSTYYADSVKGRFTISRDNAKNTVYLQMNSLKPEDTAVYYCAKEVWNWGPYYYWGQGTQVTVSS	low polyreactivity
QVQLVESGGGLVQAGGSLRLSLLPPDSPSTTMLWDGIDRRLGKKGSWLPVFLPSGGTTYADSVKGRFTISRDNAKNTVYLQMNSLKPEDTAVYYCAASYYRTRWSWMYYWGQGTQVTVSS	low polyreactivity
QVQLVESGGGLVQAGVSLRLSCAASGFIFSTYAMGGYRQAPGKERELFASIDWSGDSTYYADSVKGRFTISRDNAKNTVYLQMNSLKPEDTAVYYCAASLWPDYEYDYWGQGTQVTVSS	low polyreactivity
QVQLVESGGGLVQAGGSLRLSCAASGSTSPVYAMGWYRQAPGKERELVAAISSSGSRTYYADSVKGRFTISRDNAKNTVYLQMNCLKPEDSAVYYCAADWWAWRAYYYWGQGTQVTVSS	high polyreactivity
QVQLVESGGGLVHAGGSLRLSCAASGLIFPRYAMGSYRQAPGKERELVAAISRSGGNTYYADSVKGRFTISRDNAKNTVYLQMNSLKPEDTAVYYCAAYFSTAPKSQYKLDYWGQGTQVTVSS	high polyreactivity
QVQLVESGGGLVQAGGSLRLICAASGRIFLRNDMGWYRQAPGKERELVAGISSDGSTYYADSVNGRFTISRDNAKNTVYLQMNSLKPEDTAVYYCAAERWGNPTDYQFWRPYDYWGQGTQVTVSS	low polyreactivity
